# US20200277373A1 (published 2020)
# T1: Mouse TREM2, on cells (mouse, UniProt Q99NH8 19-227)
# T1 chain: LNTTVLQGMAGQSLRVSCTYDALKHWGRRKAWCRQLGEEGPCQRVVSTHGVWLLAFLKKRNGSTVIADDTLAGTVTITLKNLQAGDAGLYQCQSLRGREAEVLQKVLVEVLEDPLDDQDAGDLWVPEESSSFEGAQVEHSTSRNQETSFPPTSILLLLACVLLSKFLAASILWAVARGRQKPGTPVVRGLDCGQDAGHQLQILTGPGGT
# T2: His-tagged TREM2 ECD (ecto domain residues 19-172 of human TREM2, C-terminal 6X-His tag) (UniProt Q9NZC2 19-172)
# T2 chain: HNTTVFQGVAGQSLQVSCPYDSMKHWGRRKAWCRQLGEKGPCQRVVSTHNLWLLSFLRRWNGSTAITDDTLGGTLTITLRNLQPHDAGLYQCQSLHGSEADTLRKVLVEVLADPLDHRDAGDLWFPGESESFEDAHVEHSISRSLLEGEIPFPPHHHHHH
# Columns and labels:
# Mouse TREM2, on cells = molecular target: T1, Mouse TREM2, on cells; assay: FACS cell binding; FIG. 1D
# [1] = molecular target: T2, His-tagged TREM2 ECD (ecto domain …); assay: SPR (Biacore)
"EC50 (Mouse TREM2, on cells)",Kd [1],Binder
6.81 nM,–,"RS9.F6 (antibody, V domains shown) VH: QVQLQQPGAELVKPGASVKLSCKASGYTFTSYWMHWVKQSPGRGLEWIGRSDPTTGGTNYNEKFKTKATLTVDKPSSTAYMQLSSLTSDDSAVYYCVRTSGTGDYWGQGTSLTVSS VL: DVVMTQTPLSLPVSLGDQASISCRSSQSLVHNNGNTFLHWYLQKPGQSPKLLIYKVSNRFSGVPDRFSGSGSGTDFTLKISRVEAEDLGVYFCSQTTHVPPTFGGGTKLEIK"
–,2.27 nM,RS9.F6/3C.35.21.17 (bispecific antibody) heavy 1: QVQLQQPGAELVKPGASVKLSCKASGYTFTSYWMHWVKQSPGRGLEWIGRSDPTTGGTNYNEKFKTKATLTVDKPSSTAYMQLSSLTSDDSAVYYCVRTSGTGDYWGQGTSLTVSSASTKGPSVFPLAPSSKSTSGGTAALGCLVKDYFPEPVTVSWNSGALTSGVHTFPAVLQSSGLYSLSSVVTVPSSSLGTQTYICNVNHKPSNTKVDKKVEPKSCDKTHTCPPCPAPEAAGGPSVFLFPPKPKDTLMISRTPEVTCVVVDVSHEDPEVKFNWYVDGVEVHNAKTKPREEQYNSTYRVVSVLTVLHQDWLNGKEYKCKVSNKALGAPIEKTISKAKGQPREPQVYTLPPSRDELTKNQVSLWCLVKGFYPSDIAVLWESYGTEWASYKTTPPVLDSDGSFFLYSKLTVTKEEWQQGFVFSCSVMHEALHNHYTQKSLSLSPGK heavy 2: QVQLQQPGAELVKPGASVKLSCKASGYTFTSYWMHWVKQSPGRGLEWIGRSDPTTGGTNYNEKFKTKATLTVDKPSSTAYMQLSSLTSDDSAVYYCVRTSGTGDYWGQGTSLTVSSASTKGPSVFPLAPSSKSTSGGTAALGCLVKDYFPEPVTVSWNSGALTSGVHTFPAVLQSSGLYSLSSVVTVPSSSLGTQTYICNVNHKPSNTKVDKKVEPKSCDKTHTCPPCPAPEAAGGPSVFLFPPKPKDTLMISRTPEVTCVVVDVSHEDPEVKFNWYVDGVEVHNAKTKPREEQYNSTYRVVSVLTVLHQDWLNGKEYKCKVSNKALGAPIEKTISKAKGQPREPQVYTLPPSRDELTKNQVSLSCAVKGFYPSDIAVEWESNGQPENNYKTTPPVLDSDGSFFLVSKLTVDKSRWQQGNVFSCSVMHEALHNHYTQKSLSLSPGK light: DVVMTQTPLSLPVSLGDQASISCRSSQSLVHNNGNTFLHWYLQKPGQSPKLLIYKVSNRFSGVPDRFSGSGSGTDFTLKISRVEAEDLGVYFCSQTTHVPPTFGGGTKLEIK
